Legend:
PLEK on the HuProt array = target: T1, PLEK on the HuProt array (human, UniProt P08567 1-350); experiment: peptide or protein array; conditions: both partners purified
T1 construct: PLEK (pleckstrin), human; array proteins are said to come from full-length genes; source: immobilised on the Human Proteome Microarray v3.0 (HuProt array)
T1 sequence (looked up): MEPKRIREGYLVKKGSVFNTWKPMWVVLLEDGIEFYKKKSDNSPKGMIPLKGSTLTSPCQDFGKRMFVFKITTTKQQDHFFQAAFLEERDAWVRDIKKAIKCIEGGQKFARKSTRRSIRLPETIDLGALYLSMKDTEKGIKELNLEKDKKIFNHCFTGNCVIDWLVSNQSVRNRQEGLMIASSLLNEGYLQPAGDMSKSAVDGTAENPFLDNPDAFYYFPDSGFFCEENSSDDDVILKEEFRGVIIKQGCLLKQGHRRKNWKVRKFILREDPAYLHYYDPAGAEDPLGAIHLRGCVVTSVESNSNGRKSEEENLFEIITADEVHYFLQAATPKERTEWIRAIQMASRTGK

[1] = target: T2, DDX49 on the HuProt array (human, UniProt Q9Y6V7 1-483); experiment: peptide or protein array; conditions: both partners purified
T2 construct: DDX49, human; array proteins are said to come from full-length genes; source: immobilised on the Human Proteome Microarray v3.0 (HuProt array)
T2 sequence (looked up): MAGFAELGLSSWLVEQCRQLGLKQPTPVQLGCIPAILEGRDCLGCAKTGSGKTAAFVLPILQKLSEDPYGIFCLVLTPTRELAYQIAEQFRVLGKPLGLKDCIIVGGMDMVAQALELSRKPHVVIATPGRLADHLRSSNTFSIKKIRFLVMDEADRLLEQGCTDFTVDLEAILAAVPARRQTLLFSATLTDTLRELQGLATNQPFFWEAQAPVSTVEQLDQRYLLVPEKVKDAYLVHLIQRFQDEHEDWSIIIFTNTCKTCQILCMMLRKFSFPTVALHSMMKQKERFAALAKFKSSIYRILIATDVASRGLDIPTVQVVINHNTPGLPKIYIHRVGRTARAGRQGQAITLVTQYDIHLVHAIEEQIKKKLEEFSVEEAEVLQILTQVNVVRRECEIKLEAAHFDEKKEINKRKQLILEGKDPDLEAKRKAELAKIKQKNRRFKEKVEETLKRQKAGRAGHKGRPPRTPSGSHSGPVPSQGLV

B1: ZIKV-NS2A, N-terminal GST fusion, Cy5-labelled (natural protein)
chain: GSTDHMDHFSLGVLVILLMVQEGLKKRMTTKIIMSTSMAVLVVMILGGFSMSDLAKLVILMGATFAEMNTGGDVAHLALVAAFKVRPALLVSFIFRANWTPRESMLLALASCLLQTAISALEGDLMVLINGFALAWLAIRAMAVPRTDNIALPILAALTPLARGTLLVAWRAGLATCGGIMLLSLKGKGSVKKNLPFVMALGLTAVRVVDPINVVGLLLLTRSGKR
modifications: Cy5 (NHS-tethered dye), sites not stated
notes: source: yeast (vector pEGH-A), purified on glutathione beads; not shown: GST, N-terminal, kept
- binding result (PLEK on the HuProt array): binds

B2: ZIKV-NS4B, N-terminal GST fusion, Cy5-labelled (natural protein)
chain: NELGWLERTKNDIAHLMGRREEGATMGFSMDIDLRPASAWAIYAALTTLITPAVQHAVTTSYNNYSLMAMATQAGVLFGMGKGMPFMHGDLGVPLLMMGCYSQLTPLTLIVAIILLVAHYMYLIPGLQAAAARAAQKRTAAGIMKNPVVDGIVVTDIDTMTIDPQVEKKMGQVLLIAVAISSAVLLRTAWGWGEAGALITAATSTLWEGSPNKYWNSSTATSLCNIFRGSYLAGASLIYTVTRNAGLVKRR
modifications: Cy5 (NHS-tethered dye), sites not stated
notes: also called SN4B; source: yeast (vector pEGH-A), purified on glutathione beads; not shown: GST, N-terminal, kept
- binding result [1]: binds

Source: paper PMC8498969, “An Integrated Systems Biology Approach Identifies the Proteasome as A Critical Host Machinery for ZIKV and DENV Replication” (Genomics, Proteomics & Bioinformatics, 2021)
